Reference: patent publication US20240024426A1, “HYPOTENSIVE PHARMACEUTICAL COMPOSITION COMPRISING TRIPLE ACTIVATOR HAVING ACTIVITY FOR ALL OF GLUCAGON, GLP-1, AND GIP RECEPTORS” (HANMI PHARM. CO., LTD., priority 2020, published 2024)
Bridges are numbered along the chain shown (N, C = ends). Where no end group is shown, it is not given here. [ ]: non-standard residue; d: D form. The star is where a group is joined. Acetyl(2-(4-imidazolyl)) = O=C(Cc1c[nH]cn1)*; Aib = CC(C)(N)C(=O)O

T1: human GIP receptor (human, UniProt P48546 22-466)
T1 sequence (looked up): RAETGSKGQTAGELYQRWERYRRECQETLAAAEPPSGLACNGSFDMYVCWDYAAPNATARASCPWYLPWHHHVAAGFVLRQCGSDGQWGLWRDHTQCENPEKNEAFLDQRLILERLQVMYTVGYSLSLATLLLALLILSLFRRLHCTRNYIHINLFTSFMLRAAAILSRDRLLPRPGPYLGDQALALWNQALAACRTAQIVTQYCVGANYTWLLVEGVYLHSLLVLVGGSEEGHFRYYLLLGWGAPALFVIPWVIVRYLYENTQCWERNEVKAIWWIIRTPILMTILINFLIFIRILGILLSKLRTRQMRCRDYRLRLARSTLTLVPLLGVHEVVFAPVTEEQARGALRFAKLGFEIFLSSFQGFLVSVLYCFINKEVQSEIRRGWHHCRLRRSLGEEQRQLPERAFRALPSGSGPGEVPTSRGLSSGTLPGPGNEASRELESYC


Tests used:
Assay in all cases: cell-based or functional assay
[1] = molecular target: T1, human GIP receptor
[2] = molecular target: human GLP-1 receptor (human, UniProt P43220 24-463)
[3] = molecular target: human GCG receptor (human, UniProt P47871 26-477)
Chain of human GCG receptor (P47871 26-477): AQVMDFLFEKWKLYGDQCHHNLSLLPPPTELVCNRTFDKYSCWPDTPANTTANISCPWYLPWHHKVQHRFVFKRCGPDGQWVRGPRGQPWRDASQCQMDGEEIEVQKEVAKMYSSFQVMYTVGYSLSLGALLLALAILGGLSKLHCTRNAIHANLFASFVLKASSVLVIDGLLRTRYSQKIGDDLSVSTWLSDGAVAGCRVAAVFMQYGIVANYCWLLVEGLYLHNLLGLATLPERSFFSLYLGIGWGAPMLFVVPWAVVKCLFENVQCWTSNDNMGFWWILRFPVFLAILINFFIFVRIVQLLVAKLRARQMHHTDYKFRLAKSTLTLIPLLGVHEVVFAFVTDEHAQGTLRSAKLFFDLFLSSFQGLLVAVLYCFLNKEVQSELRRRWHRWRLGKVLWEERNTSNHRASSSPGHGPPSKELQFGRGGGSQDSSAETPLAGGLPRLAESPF

Binder | In vitro activity compared with native peptide (%) vs. GIP [1] [%] | In vitro activity compared with native peptide (%) vs. GLP-1 [2] [%] | In vitro activity compared with native peptide (%) vs. Glucagon [3] [%]
{Acetyl(2-(4-imidazolyl))}-[Aib]QGTFTSDYSIAMDEIACKDFVNWLLNTK (bridge 15-19) [Triple agonist of SEQ ID NO: 61] | 2.8 | 59.8 | < 0.1
{Acetyl(2-(4-imidazolyl))}-[Aib]QGTFTSDKSKYLDERAAQDFVQWLLDGGPSSGAPPPS [Triple agonist of SEQ ID NO: 62] | < 0.1 | 5.2 | < 0.1
{Acetyl(2-(4-imidazolyl))}-[Aib]QGTFTSDCSKYLDERAAQDFVQWLLDGGPSSGAPPPS [Triple agonist of SEQ ID NO: 63] | < 0.1 | 15.3 | < 0.1
Y[Aib]QGTFTSDYSKYLDECAAKEFVQWLLDHHPSSGQPPPS (bridge 16-20) [Triple agonist of SEQ ID NO: 64] | 92.9 | 64.6 | 60.1
H[Aib]QGTFTSDVSKYLDGQAAKEFVAWLLKGC [Triple agonist of SEQ ID NO: 7] | < 0.1 | 13.7 | < 0.1
H[Aib]QGTFTSDYSKCLDEKRAKEFVQWLLDHHPSSGQPPPS (bridge 16-20) [Triple agonist of SEQ ID NO: 65] | 11.6 | 95.4 | 25.2
Y[Aib]QGTFTSDYSKYLDECRAKDFVQWLLDHHPSSGQPPPS (bridge 16-20) [Triple agonist of SEQ ID NO: 66] | 17.2 | 15.8 | 172
Y[Aib]QGTFTSDYSKYLDECAAKDFVQWLLDHHPSSGQPPPS (also: ring formation, positions not given here) [Triple agonist of SEQ ID NO: 67] | 39.8 | 28.5 | 46.2
Y[Aib]QGTFTSDYSKCLDEKAAKEFVQWLLDHHPSSGQPPPS (bridge 16-20) [Triple agonist of SEQ ID NO: 68] | 107 | 27.9 | 8.8
Y[Aib]QGTFTSDYSKCLDERAAKEFVQWLLDHHPSSGQPPPS (bridge 16-20) [Triple agonist of SEQ ID NO: 69] | 62.8 | 24.3 | 9.6
Y[Aib]QGTFTSDYSKCLDEKRAKDFVQWLLDHHPSSGQPPPS (bridge 16-20) [Triple agonist of SEQ ID NO: 70] | 64.4 | 15.1 | 71.3
Y[Aib]QGTFTSDYSKYLDERACKDFVQWLLDHHPSSGQPPPS (bridge 16-20) [Triple agonist of SEQ ID NO: 71] | 94.7 | 90.1 | 12.7
Y[Aib]QGTFTSDCSKYLDERAAKDFVQWLLDHHPSSGQPPPS (bridge 16-20) [Triple agonist of SEQ ID NO: 72] | 1.6 | 11.5 | 1
{Acetyl(2-(4-imidazolyl))}-[Aib]QGTFTSDYSKYLDECRAKEFVQWLLDHHPSSGQPPPS (bridge 15-19) [Triple agonist of SEQ ID NO: 73] | 3 | 22.6 | 5.4
{Acetyl(2-(4-imidazolyl))}-[Aib]QGTFTSDYSKCLDEKRAKEFVQWLLDHHPSSGQPPPS (bridge 15-19) [Triple agonist of SEQ ID NO: 74] | 1 | 12.9 | 0.9
H[Aib]QGTFTSDVSKYLDGQAAQEFVAWLLKGC [Triple agonist of SEQ ID NO: 8] | < 0.1 | 14.2 | 0.1
Y[Aib]QGTFTSDYSKYLDEKAAKEFVQWLLDHHPSSGQPPPSC (bridge 16-20) [Triple agonist of SEQ ID NO: 75] | 18 | 35.1 | 8.5
Y[Aib]QGTFTSDYSKYLDEKRAKDFVQWLLDHHPSSGQPPPSC (bridge 16-20) [Triple agonist of SEQ ID NO: 76] | 11.7 | 10.3 | 47.6
Y[Aib]QGTFTSDYSKYLDEKAAKDFVQWLLDHHPSSGQPPPSC (bridge 16-20) [Triple agonist of SEQ ID NO: 77] | 35.5 | 38.7 | 12.2
H[Aib]QGTFTSDYSKYLDEKRQKEFVQWLLDTKC (bridge 16-20) [Triple agonist of SEQ ID NO: 78] | 0.12 | 51 | 14
H[Aib]EGTFTSDYSIAMDEIHQKDFVNWLLAQKC (bridge 16-20) [Triple agonist of SEQ ID NO: 79] | 1.4 | 41.5 | 4.9
H[Aib]EGTFTSDYSIAMDEIHQKDFVDWLLAEKC (bridge 16-20) [Triple agonist of SEQ ID NO: 80] | 0.1 | 8.1 | 0
{Acetyl(2-(4-imidazolyl))}-[Aib]QGTFTSDYSKYLDEKRQKEFVQWLLNTC (bridge 15-19) [Triple agonist of SEQ ID NO: 81] | < 0.1 | 7.8 | 0.3
{Acetyl(2-(4-imidazolyl))}-[Aib]QGTFTSDYSKYLDEKRQKEFVQWLLDTC (bridge 15-19) [Triple agonist of SEQ ID NO: 82] | < 0.1 | 9.5 | 1.1
{Acetyl(2-(4-imidazolyl))}-[Aib]EGTFTSDYSIAMDEIHQKDFVNWLLAQC (bridge 15-19) [Triple agonist of SEQ ID NO: 83] | 0.4 | 47.3 | 1.3
{Acetyl(2-(4-imidazolyl))}-[Aib]EGTFTSDYSIAMDEIHQKDFVDWLLAEC (bridge 15-19) [Triple agonist of SEQ ID NO: 84] | < 0.1 | 4.2 | < 0.1
H[Aib]QGTFTSDVSKYLDGQAAQEFVAWLLAGC [Triple agonist of SEQ ID NO: 9] | < 0.1 | 32.1 | 0.13
{Acetyl(2-(4-imidazolyl))}-[Aib]QGTFTSDYSIAMDEIHQKDFVNWLLAQC (bridge 15-19) [Triple agonist of SEQ ID NO: 85] | 0.3 | 4.3 | < 0.1
{Acetyl(2-(4-imidazolyl))}-[Aib]QGTFTSDYSKYLDEKRQKEFVNWLLAQC (bridge 15-19) [Triple agonist of SEQ ID NO: 86] | 0.2 | 28.4 | 0.4
